Reference: article PMC8879737
Values joined by “and” are separate entries in the source; they are usually repeats but may differ in a detail not shown here. Equal entries are not always repeated. Where two headings read alike, the source gives them in different places.

Experiments:
[1] = target: rabbit whole molecule IgG (rabbit); test: SPR; Biacore 2000; human IgG Fc and human, rabbit, mouse, guinea pig whole IgG amine coupled to CM5 chips (854, 1348, 1094, 857, 1143 RU); gE monomers and gE/gI heterodimers at 750 μg/mL (Bac gE-1 t411 490 μg/mL) flowed at 30 μL/min in 0.01 M HEPES pH 7.4, 0.15 M NaCl, 0.005% P20; one concentration, RU at the end of association and of dissociation
[2] = target: human whole molecule IgG (human); test: as above
[3] = target: guinea pig whole molecule IgG (guinea pig); test: as above
[4] = target: ChromePure human IgG Fc (human); test: as above
[5] = target: rabbit whole molecule IgG (rabbit); test: as above; remark: listed apart in the source
[6] = target: human whole molecule IgG (human); test: as above; remark: listed apart in the source
[7] = target: ChromePure human IgG Fc (human); test: as above; remark: listed apart in the source
[8] = target: gE-2 t417 (HSV-2 strain 333); test: SEC-MALS; Superdex 200, 10 mM HEPES, 150 mM NaCl, pH 7.5, 20 °C, 0.5 mL/min; 200 µg injected; conjugate analysis (protein and carbohydrate)

Substance | RU post association [1] | RU post dissociation [1] | RU post association [2] | RU post dissociation [2] | RU post association [3] | RU post dissociation [3] | RU post association [4] | RU post dissociation [4] | RU post association [5] | RU post association [6] | RU post association [7] | stoichiometry N [8]
gE-1 t419 (domain or fragment) | 188 RU | 0.6 RU | 127 RU | -1.9 RU | 27 RU | -2.4 RU |  |  |  |  |  | 
gE-1 t419/gI-1 t269 (complex) | 195 RU | 170 RU | 232 RU | 189 RU | 19 RU | 0.8 RU | 216 RU | 137 RU |  |  |  | 
Bac gE-1 t411 (domain or fragment) | 231 RU | 75 RU | 147 RU | 32 RU | 32 RU | 3.3 RU | 77 RU |  | 228 RU and 221 RU | 157 RU and 145 RU | 80 RU | 
gI-2 t262 (strain 333) (domain or fragment) |  |  |  |  |  |  |  |  |  |  |  | 1
gE-2 t417/gI-2 t262 (complex) | 46 RU | -1.5 RU | 52 RU | -2.1 RU |  |  |  |  |  | 53 RU and 133 RU |  | 
gE-2 t405/gI-2 t262 (complex) | 165 RU | 34 RU | 142 RU | 14 RU |  |  | 100 RU | 7.7 RU |  |  |  | 
gE-2 t24-405/gI-2 t262 (complex) | 142 RU | 25 RU | 136 RU | 12 RU |  |  | 95 RU | 6.6 RU |  |  |  | 
gE-2 t414/gI-2 t262 (complex) | 75 RU | -0.6 RU | 79 RU | -0.4 RU |  |  | 53 RU | 0.6 RU |  |  |  | 
